How the values were obtained:
[1] = target: T1, human MSLN-R2-his protein (human, UniProt Q13421 391-486); test: ELISA, coated MSLN-R2;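 also: chimeric antibodies bound to blocked coated plates for 2 h at 37 °C, TMB colour development stopped with HCl, with a negative control antibody for comparison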
T1 construct: Region 2 of human MSLN, His-tagged; also called human MSLN-R2 protein; hMSLN-R2-his; not shown: His tag

[2] = target: T2, human MSLN-R3-his protein (human, UniProt Q13421 487-598); test: ELISA, coated MSLN-R3
T2 construct: Region 3 of human MSLN, His-tagged; also called human MSLN-R3 protein; hMSLN-R3-his; not shown: His tag

[3] = target: T3, human MSLN-R3-3 polypeptide (human); test: ELISA, coated MSLN-R3-3;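 also: chimeric antibodies in serial dilution bound to plate-coated antigen for 2 h at 37 °C, with a negative control antibody alongside, and TMB colour development stopped with HCl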
T3 construct: also called human MSLN-R3-3 protein; hMSLN-R3-3
Experimental: The plate was sealed with a plastic film and incubated at 4° C. overnight. The next day, the plate was washed twice with PBST, and a blocking buffer [PBS+2% (w/w) BSA] was added for blocking at room temperature for 2 h. The blocking buffer was discarded, and a chimeric antibody or negative control antibody serially diluted from 100 nM was added at 50 μL/well. After incubation at 37° C. for 2 h, the plate was washed 3 times with PBST. […] After incubation at 37° C. for 2 h, the plate was washed 5 times with PBST. A TMB substrate was added at 50 μL/well for incubation at room temperature for 5-10 min, and then a stop solution (1.0 N HCl) was added at 50 μL/well.

T1 sequence (Q13421 other isoform, or with tags, fused parts or gaps): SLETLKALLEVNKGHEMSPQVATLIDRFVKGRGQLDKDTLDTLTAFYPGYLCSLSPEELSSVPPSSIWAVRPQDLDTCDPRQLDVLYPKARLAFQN
T2 sequence (Q13421 495-606): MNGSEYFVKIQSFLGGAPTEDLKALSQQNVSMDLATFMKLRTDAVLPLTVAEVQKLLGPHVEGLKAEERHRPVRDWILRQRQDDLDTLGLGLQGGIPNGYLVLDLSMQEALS

Row | Binder | OD450 at 0.0001 nM [1] | OD450 at 0.001 nM [1] | OD450 at 0.01 nM [1] | OD450 at 0.1 nM [1] | OD450 at 1 nM [1] | OD450 at 10 nM [1] | OD450 at 100 nM [1] | OD450 at none (no antibody) [1] | OD450 at 0.0001 nM [2] | OD450 at 0.001 nM [2] | OD450 at 0.01 nM [2] | OD450 at 0.1 nM [2] | OD450 at 1 nM [2] | OD450 at 10 nM [2] | OD450 at 100 nM [2] | OD450 at none (no antibody) [2] | OD450 at 0.0001 nM [3] | OD450 at 0.001 nM [3] | OD450 at 0.01 nM [3] | OD450 at 0.1 nM [3] | further results
1 | S009-F1.56.1 (antibody, human IgG1, kappa, V domains shown, Human-murine chimeric antibody, human IgG1/kappa constant regions) VH: EVQLQQSGAEVVKPGASVKLSCTASGFNIRHTYMHWVKQRPEQGLEWIGRIDPANGNTEYDPKFQGKATITADTSSNTAYLQLSSLTSEDTAVYYCARDGWYIDVWGAGTTVTVSS VL: DIVMSQSPSSLAVSVGEKVTMSCKSSQSLLYSNNQKNYLAWYQQKPGQSPKLLIYWASTRESGVPDRFTGSGSGTDFTLTISSVKAEDLAVYYCQRYYSYPWTFGGGTKLEIKR | 0.04 OD450 | 0.05 OD450 | 0.19 OD450 | 0.88 OD450 | 2.04 OD450 | 2.31 OD450 | 2.62 OD450 | 0.05 OD450 | 0.05 OD450 | 0.04 OD450 | 0.04 OD450 | 0.05 OD450 | 0.04 OD450 | 0.05 OD450 | 0.06 OD450 | 0.06 OD450 | 0.07 OD450 | 0.07 OD450 | 0.08 OD450 | 0.06 OD450 | OD450 at 1 nM [3]: 0.07 OD450; OD450 at 10 nM [3]: 0.08 OD450; OD450 at 100 nM [3]: 0.12 OD450; OD450 at none (no antibody) [3]: 0.07 OD450
2 | S009-F1.2.12 (antibody, human IgG1, kappa, V domains shown) VH: QVQLKQTGPGLVQPSQSLSITCTVSGFSLTNYAVHWVRQSPGKGLEWLGVIWSGGATDYNTVFISRLSISKDNSKSQVFFKVNSLQVDDTAIYYCARTGSGYAMDYWGQGTSVTVSS VL: DIVLTQSPATLSVTPGDRVSLSCRTSHNVNTYLHWYQQKSHESPRLLIKYASQSISEIPSRFSGSGSGTNFTLSINSVETEDFGMYFCHQTNRWPLTFGAGTKLELKR | 0.05 OD450 | 0.05 OD450 | 0.05 OD450 | 0.06 OD450 | 0.1 OD450 | 0.3 OD450 | 1.44 OD450 | 0.05 OD450 | 0.05 OD450 | 0.06 OD450 | 0.05 OD450 | 0.05 OD450 | 0.05 OD450 | 0.06 OD450 | 0.06 OD450 | 0.06 OD450 | 0.06 OD450 | 0.08 OD450 | 0.06 OD450 | 0.07 OD450 | OD450 at 1 nM [3]: 0.07 OD450; OD450 at 10 nM [3]: 0.08 OD450; OD450 at 100 nM [3]: 0.16 OD450; OD450 at none (no antibody) [3]: 0.08 OD450
3 | S009-F1.7.14 (antibody, human IgG1, kappa, Human-murine chimeric antibody, human IgG1/kappa constant regions) heavy: not shown light: QIVLTQSPAIMSASPGEKVTISCSASSSVSYMYWYQQKPGSSPKPWISRTSNLASGVPARFSGSGSGTSYSLTISSMEAEDAATYYCQQYHSYPPTLGAGTKLELKRTVAAPSVFIFPPSDEQLKSGTASVVCLLNNFYPREAKVQWKVDNALQSGNSQESVTEQDSKDSTYSLSSTLTLSKADYEKHKVYACEVTHQGLSSPVTKSFNRGEC | 0.04 OD450 | 0.04 OD450 | 0.05 OD450 | 0.04 OD450 | 0.05 OD450 | 0.05 OD450 | 0.11 OD450 | 0.05 OD450 | 0.05 OD450 | 0.05 OD450 | 0.04 OD450 | 0.05 OD450 | 0.05 OD450 | 0.07 OD450 | 0.1 OD450 | 0.05 OD450 | 0.07 OD450 | 0.07 OD450 | 0.07 OD450 | 0.07 OD450 | OD450 at 1 nM [3]: 0.07 OD450; OD450 at 10 nM [3]: 0.13 OD450; OD450 at 100 nM [3]: 0.72 OD450; OD450 at none (no antibody) [3]: 0.07 OD450
4 | S009-F1.25.10 (antibody, human IgG1, kappa, V domains shown, Human-murine chimeric antibody, human IgG1/kappa constant regions) VH: EVQLQQSGPELVKPGASLKISCKASGYSFTDYTMNWVKQSHGKNLEWIGLFNPYNGGISYNQKFKGKATLTVDKSSNTAYMELLSLTSDDSAVYFCARDGRGGFYAMDYWGQGTSVTVSS VL: DIQMTQTTSSLSASLGDRVTISCRASQDISIYLNWYQQKPDGPVKLLIYYTSRLHSGVPSRFSGSGSGTDFSLTISNLEQEDIATYFCQQGYTLPPWTFGGGTKLEIKR | 0.04 OD450 | 0.04 OD450 | 0.04 OD450 | 0.04 OD450 | 0.04 OD450 | 0.05 OD450 | 0.05 OD450 | 0.05 OD450 | 0.05 OD450 | 0.05 OD450 | 0.09 OD450 | 0.34 OD450 | 1.44 OD450 | 2.07 OD450 | 2.81 OD450 | 0.05 OD450 | 0.07 OD450 | 0.13 OD450 | 0.59 OD450 | 1.82 OD450 | OD450 at 1 nM [3]: 2.17 OD450; OD450 at 10 nM [3]: 2.41 OD450; OD450 at 100 nM [3]: 2.78 OD450; OD450 at none (no antibody) [3]: 0.07 OD450

Reference: patent publication US20250250357A1 (NANJING ZAIMING PHARMACEUTICAL, published 2025)
